Data from the domain aggregation screens of Martell et al. (2025).

Assay: soluble fraction after stress (log2 fold change); higher = more stays soluble; pooled small domains, quantitative proteomics
Details: stress: 75 degC
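Note: 20 min heating vs room temperature control held 20 min.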

Sequence	soluble fraction (log2)
HMAAEGARNNSLFNSLRERALEVSSHNELEQIAFKMNETNIPPLRASEVISVVNSVWKNRISNQIIP	0.266
HMAAFGDLLSELRRDMNMTQDELAKVLFVSPGTISNYENNIHFPDVPKLKQIAQYFGVTTDYLLG	-0.519
HMAAINTYQVRKIYAIAGALGMKSRDGDDALHDLVFGMTGKQHISGLTSAEAYDVIAELEKKQ	-1.6
HMAALKVAVLTVSDTRTQETDTSGAFLEGALREAGHEIADRQIVIDDVYQLRAIVSQWIADPEVEVILT	-0.121
HMAALTADEAKQIALKHAGVAESDVQRLKVEQDRDDGRLLYEVEWDVGRTEYSYEIDANTGDILNYEKDV	-0.000944
HMAANKIDEDRNTELLQVIQNKFPDADAATKKSVKEIMKEHDIPNFKNADDIPTAVLEQIVKVLNQ	-0.378
HMAAPLTDRETEVLTLLARGLINKQIAEELHIGLTTVITHRRNIMEKLRVRSLAELILRAVAAGYVDAGR	-1.79
HMAARKDLIAGEDAEGRLDAWLAAALDGEFSRNRVKALIEQGAVAINDVAVTEPKRKIRPGDRLSIVLPEP	0.325
HMAARLMRALIPYAQGGLLAKLHEDGQVLSEEYTGEGIEVKALADEQLFGRLTVQLGEQAVSWQD	-0.163
HMAASTPGTVTGSVVNVRPDPSTNNDRIGVIYQGTKVEILAQVGEWYNIQFGPVSGWVHKDYISTGA	-0.421
HMAATISPEIQAEAEKAAALGVESIKNFMASLKEKNPEQHALFSDSEKRRLYAIARKADLNTTQQG	0.595
HMAAVPQPQRSETIVYIGGRKFYVHTVQAGETLYSIARLYGVSEQTLVANNPTMADVVKADQNVRIPVPA	-1.96
HMAAYRLIPLGNSNKDFETYQEAIQYMRDKLDESSKAFEEGKQNWVYSGRVYGVPWSDGRTTFTVDLVPKV	0.594
HMADASVTAYFKIAEDRLQGRLPDTFSEASLKARYQLTPAQLTAVLTRIAQEGWAERKPGYGWAFSSML	-1.62
HMADEIMYPVQVNGKVRAEIFVAADQSKNKELVLEMAKSEERVQKYLEEGNLIKEIFVPGRIVNLVI	0.162
HMADEIQIGLQKAIQSLPEKQKLVFSMRYYDEIPYDEMSKILDMSVGTLKTNYHYAKQKIEDFLQNH	-1.22
HMADFIGMNATVTERIFPQGFGRISFVYEGNSISEPARSEDGKEIPTGTSVVVLEVRDKVYIVQPL	-2.35
HMADGDIIPEGQRDATLASLAGSMRARGMTEAEILAALQVTNETRVRPPMALADLERIARSIGRYEPGK	0.0569
HMADKGTITNQQEKILKALILFPEGASIEEIQKAADLGIDKRQFQRRLNTLIESGQINRTGKSRGTKYHTI	0.201
HMADLKVGFVHRAGSVLERELDDVLEALEMYRSALAIDPSHKPSLDALTRISQLADYREQAAEILEPLPR	-0.767
HMADLNFHQQIRSLPPEQQEILLLRFGQELTLRQIAQVTGVPLRTVQSRLRAALKKLKSQLEKEE	-0.696
HMADLPQATALADVKGDVQMQGIQFGYDPEKIIIHDLNLHARPGSLVAIVGPTGAGKTTIINLLMRFYD	-1.75
HMADLVYLRKRLQDAIAQLPEDMRTAYTLFQIARRSIREIAELTGASESLVKVRIHRAKGKLQELLEDLR	-2.57
HMADPAVLIAELFRAMPEKRFSVKNLISATGAETREQKDYVREVVHSLSREGMIEQVAEGKYRLSASE	0.299
HMADQVLVMTRAVGQGDIVRNADIGLTSVAVDRAVATIPASQLDKIVGRHALVDLSPGQLLGSHSVGE	0.147
HMADRDKYIIMGQQLLRAAFEHFGKKATDKALENAANKLRISDVPELYARLGSAELQPRDVINVIFPD	-0.308
HMADRLITLSEVASLLRVSRHTVQAWISPSSPNHRPEFAIMARHAGRRTVFIEAEVTAWLDQRRG	-2.14
HMADVSPEAQHKMVEAFAQFGVTKEHIEQRIQRRLDAIQPAQMVTLKRIFASLRDGMSTPAEWFE	-0.639
HMADYSGYLGKKGKVIAPLRPAGTALIDGERVDVVSFGDYIDKDSEIEVVKIEGSKLLVKKY	0.28
HMAEAIVMSTAAPVKSSPDPQSKDIFVLHEGTKVAVGDSLGDWREIRIADGNKGWVLVSAIEMI	0.0397
